The labels stand for the following.
B1: Ribonuclease HI, P0A7Y4 (parent)
chain: MLKQVEIFTDGSCLGNPGPGGYGAILRYRGREKTFSAGYTRTTNNRMELMAAIVALEALKEHCEVILSTDSQYVRQGITQWIHNWKKRGWKTADKKPVKNVDLWQRLDAALGQHQIKWEWVKGHAGHPENERCDELARAAAMNPTLEDTGYQVEV

The variants in the data set derive from B1. Particulars: Escherichia coli (strain K12), CD, reversible: yes, structure 2RN2, whole UniProt chain shown.
[1] abbreviates: pH 3, 49.8 °C, Thermal, glycine-HCl 10 mM.
Setting [2] is: pH 3, Thermal, glycine-HCl 10 mM.
Where [3] appears, read: pH 5.5, 25 °C, Urea, Sodium acetate 10 mM, NaCl 0.1 M.

Broadly, the Tm is the temperature at which the thermal transition is half complete.

In the case of MLKQVEIFTDGSCLGNPGPGGYGAILRYRGREKTFSAGYTRTTNNRMELMAAIVALEALKEHCEVILTTDSQYVRQGITQWIHNWKKRGWKTADKKPVKNVDLWQRLDAALGQHQIKWEWVKGHAGHPENERCDELARAAAMNPTLEDTGYQVEV [S68T], the “ddG of mutation (higher = less stable)” value under setting [1] came to 0.2 kcal/mol. For the same variant, under setting [2], the Tm was 49.1 °C; the “change of melting temperature, mutant - wild type (higher = more stable)” value (shortened to “change of melting temperature, mutant”) is -0.7 °C; the “unfolding enthalpy (van 't Hoff)” value is 106 kcal/mol. In addition, under setting [3], the “ddG of mutation (higher = less stable)” value is -0.1 kcal/mol, the denaturant m value was 1.95 kcal/mol/M, the “denaturant midpoint (higher = more stable)” value (“denaturant midpoint” for short) turned out to be 5 M and the unfolding free energy is 9.91 kcal/mol.
For MLKQVEIFTDGSCLGNPGPGGYGAILRYRGREKTFSAGYTRTTNNRMELMAAIVALEALKEHCEVILATDSQYVRQGITQWIHNWKKRGWKTADKKPVKNVDLWQRLDAALGQHQIKWEWVKGHAGHPENERCDELARAAAMNPTLEDTGYQVEV [S68A], under setting [1], the “ddG of mutation (higher = less stable)” value turned out to be 0.5 kcal/mol. Also, under setting [2], the Tm turned out to be 48.3 °C; the “change of melting temperature, mutant” value was -1.5 °C; the “unfolding enthalpy (van 't Hoff)” value was determined as 89 kcal/mol. For the same variant, under setting [3], the “ddG of mutation (higher = less stable)” value is -0.19 kcal/mol, the denaturant m value was 2.06 kcal/mol/M, the “denaturant midpoint” value worked out at 4.8 M and the unfolding free energy was 10 kcal/mol.
Turning to MLKQVEIFTDGSCLGNPGPGGYGAILRYRGREKTFSAGYTRTTNNRMELMAAIVALEALKEHCEVILGTDSQYVRQGITQWIHNWKKRGWKTADKKPVKNVDLWQRLDAALGQHQIKWEWVKGHAGHPENERCDELARAAAMNPTLEDTGYQVEV [S68G], the “ddG of mutation (higher = less stable)” value under setting [1] turned out to be 2.4 kcal/mol. For the same variant, under setting [2], the Tm turned out to be 41.8 °C; the “change of melting temperature, mutant” value is -8 °C; the “unfolding enthalpy (van 't Hoff)” value was 84.7 kcal/mol. For the same variant, under setting [3], the “ddG of mutation (higher = less stable)” value stood at 2.2 kcal/mol, the denaturant m value was determined as 2 kcal/mol/M, the “denaturant midpoint” value worked out at 4 M and the unfolding free energy is 7.61 kcal/mol.
In the case of MLKQVEIFTDGSCLGNPGPGGYGAILRYRGREKTFSAGYTRTTNNRMELMAAIVALEALKEHCEVILVTDSQYVRQGITQWIHNWKKRGWKTADKKPVKNVDLWQRLDAALGQHQIKWEWVKGHAGHPENERCDELARAAAMNPTLEDTGYQVEV [S68V], under setting [1], the “ddG of mutation (higher = less stable)” value was -0.6 kcal/mol. Under setting [2], the Tm worked out at 51.7 °C; the “change of melting temperature, mutant” value came out at 1.9 °C; the “unfolding enthalpy (van 't Hoff)” value was determined as 98.8 kcal/mol. Also, under setting [3], the “ddG of mutation (higher = less stable)” value was -1.29 kcal/mol, the denaturant m value was determined as 2.13 kcal/mol/M, the “denaturant midpoint” value was 5.1 M and the unfolding free energy was determined as 11.1 kcal/mol.
Regarding MLKQVEIFTDGSCLGNPGPGGYGAILRYRGREKTFSAGYTRTTNNRMELMAAIVALEALKEHCEVILLTDSQYVRQGITQWIHNWKKRGWKTADKKPVKNVDLWQRLDAALGQHQIKWEWVKGHAGHPENERCDELARAAAMNPTLEDTGYQVEV [S68L], under setting [1], the “ddG of mutation (higher = less stable)” value was determined as 0.5 kcal/mol. Also, under setting [2], the midpoint of thermal melting (Tm) was found to be 48.2 °C; the “change of melting temperature, mutant” value was -1.6 °C; the “unfolding enthalpy (van 't Hoff)” value is 84 kcal/mol.

These data come from FireProtDB (doi:10.1111/j.1432-1033.1992.tb16932.x).
